Laboratory results reported in US20240350646A1, “METHODS AND COMPOSITIONS FOR DELIVERY TO AND ACROSS THE BLOOD BRAIN BARRIER” (NUtech Ventures, priority 2021, published 2024).
Read-outs that look alike come from different tables or passages of the source.

Legend:
[1] = middle aged humans of around 40 years of age; cited from earlier work
[2] = target: T1, human claudin-1 (Homo sapiens, UniProt O95832); test: Microscale thermophoresis (MST) binding
T1 construct: made in house
T1 sequence (O95832 1-211): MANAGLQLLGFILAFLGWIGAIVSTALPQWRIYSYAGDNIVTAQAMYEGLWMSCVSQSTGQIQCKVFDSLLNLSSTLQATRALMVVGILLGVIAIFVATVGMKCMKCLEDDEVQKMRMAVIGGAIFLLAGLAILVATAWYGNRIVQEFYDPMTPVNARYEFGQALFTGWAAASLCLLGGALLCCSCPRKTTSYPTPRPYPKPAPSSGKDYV
Experimental: Human claudin-1 was expressed and purified as reported previously (Vecchio & Stroud, 2019, PNAS USA, 116:17817-24). MST measurements were performed using a Monolith instrument (NanoTemper Technologies). For experiments with human claudin-1, the assay buffer contained 10 mM Tris HCl, pH 8.0, 100 mM NaCl, 4% glycerol, and 0.04% n-Dodecyl-β-D-Maltopyranoside (β-DDM). NPs and peptides were labeled with AF647 prior to MST analysis as described above. For the binding experiments, the concentration of human claudin-1 was varied from 2.2-73,500 nM and the AF647-labeled C1C2-NP was fixed at 70 nM, while the AF647 labeled NPs and AF647 labeled C1C2 peptide were fixed at 1 and 0.3 μM, respectively. Binding of the AF647 labeled C1C2-NP to human claudin-3, -4, and -9 were tested using 0.4-14000 nM, 0.8-28000 nM, and 0.6-20000 nM, respectively; with the AF647 labeled C1C2-NP fixed at 70 nM. This assay buffer was similar, except β-DDM was replaced with 0.1% n-Undecyl-β-D-Maltopyranoside (beta-UDM). In order to check non-specific binding of β-DDM micelles to the AF647 labeled C1C2-NP, the concentration of beta-DDM was varied from 0.03-900 μM and the concentration of the AF647-labeled C1C2-NP was fixed at 1 μM. A similar experiment was performed wherein the concentration of beta-UDM was varied from 0.3-10,000 μM and the concentration of AF647-labeled control NP was fixed at 1 μM. The non-specific binding of human claudins 4 and 9 to the NP was examined by varying the concentrations of human claudins 4 and 9 from 0.7-20,100 nM and 0.8-31,100 nM, respectively. The human claudin sub-dilutions were mixed with the NPs or peptides and loaded in standard monolith NT.115 capillary tubes for measurement. All experiments were conducted at 23° C. using the nano-red channel of the Monolith instrument and the data were analyzed by using either Monolith analysis software or Graph Pad Prism, version 9 (Graph Pad Software, San Diego, California).

Compound: CNC[C@H](O)[C@@H](O)[C@H](O)[C@H](O)CO.CNC[C@H](O)[C@@H](O)[C@H](O)[C@H](O)CO.O=C([O-])CN(CCN(CC(=O)[O-])CC(=O)O)CCN(CC(=O)O)C(COCc1ccccc1)C(=O)[O-].[Gd+3] (stereo not drawn) [MultiHance]
- K^trans, hippocampus [1]: ~0.001 min⁻¹

Compound: C1C2 peptide: Peptide SSVSQSTGQIQSKVDSLLNLNSTQATR (SEQ ID NO: 6) purchased from Genscript; binds first extracellular loop of claudin-1 (Ac-SSVSQSTGQIQSKVDSLLNLNSTQATR-NH2)
- Binding to human claudin-1 (in words) [2]: little binding
- Binding to human claudin-1 (in words) ([2]; listed as C1C2 peptides): no binding
